# From publication PMC12823420 (Nature, 2024)
# Where no end group is shown, it is not given here.
# B1: SARNP-6×His (full-length SARNP) (natural protein, human, UniProt P82979 1-210, looked up)
# chain: MATETVELHKLKLAELKQECLARGLETKGIKQDLIHRLQAYLEEHAEEEANEEDVLGDETEEEETKPIELPVKEEEPPEKTVDVAAEKKVVKITSEIPQTERMQKRAERFNVPVSLESKKAARAARFGISSVPTKGLSSDNKPMVNLDKLKERAQRFGLNVSSISRKSEDDEKLKKRKERFGIVTSSAGTGTTEDTEAKKRKRAERFGIA
# notes: SARNP, human; also called CIP29; recombinant full length SARNP; source: E. coli BL21 DE3 RIL, purified (HisTrap, HiTrapQ, Superdex 200)
# B2: MBP-SARNP^47–210-3C-3V5-SUMO-10×His (domain or fragment, human, UniProt P82979 47-210, looked up)
# chain: EEEANEEDVLGDETEEEETKPIELPVKEEEPPEKTVDVAAEKKVVKITSEIPQTERMQKRAERFNVPVSLESKKAARAARFGISSVPTKGLSSDNKPMVNLDKLKERAQRFGLNVSSISRKSEDDEKLKKRKERFGIVTSSAGTGTTEDTEAKKRKRAERFGIA
# notes: SARNP, human, residues 47-210; also called MBP-SARNP residues 47-210; SARNP lacking the N-terminal SAP domain; source: E. coli BL21 DE3 RIL, purified; not shown: MBP, N-terminal, kept
# B3: 10×His-SUMO-3V5-tagged SARNP UCM-1 (residues 82-115) (peptide)
# chain: VDVAAEKKVVKITSEIPQTERMQKRAERFNVPVS
# notes: also called Sumo-V5–UCM-1; SUMO-V5-3C–UCM; source: E. coli BL21 DE3 RIL, purified (HisTrap, HiTrapQ, Superdex 75)
# B4: MBP-tagged ALYREF^N (residues 1–182) (domain or fragment)
# chain: not shown
# notes: also called ALYREF construct harbouring only an N-UBM
# B5: MBP-tagged ALYREF^C (residues 106–257) (domain or fragment)
# chain: not shown
# notes: also called ALYREF harbouring only a C-UBM
# Tests used:
# Details in all cases: both partners purified
# [1] = target: T1, Flag-tagged UAP56 (human, UniProt Q13838 1-428); experiment: pull-down; Flag-tagged UAP56 (5 µM) on anti-Flag M2 beads with WT or mutant SARNP (20 µM); buffer A2, room temperature 1 h; Coomassie
# T1 construct: Used in an in vitro pull-down analysed by Coomassie staining
# [2] = target: T2, UAP56 (human, UniProt Q13838 1-428); experiment: pull-down
# T2 construct: The methods name 6×His-TwinSTREPII-3C-UAP56 and 10×His-3C-UAP56; also called DDX39B; DDX39
# [3] = target: T2, UAP56; experiment: grating-coupled interferometry (GCI); biotinylated UBM or UCM peptides captured on a streptavidin chip; UAP56 injected; 25 mM HEPES pH 7.9, 50 mM KCl, 1 mM MgCl2, 1 mM TCEP, 25 °C; one-to-one model; UCM peptides also with AMP-PNP or AMP-PNP and 15 U RNA
# [4] = target: T2, UAP56; experiment: pull-down; MBP-tagged full-length or truncated ALYREF (2.5 µM) on amylose resin with 12.5 µM UAP56, UCM-1, N-UBM or C-UBM or 6 µM full-length SARNP; with or without 1 mM ATP and 200 µM 15 U RNA; Coomassie
Binder,binding result [1],binding result [4],further results
B1,binds,–,–
B2,binds,–,–
B3,–,–,binding result [2]: binds
"SISRKSEDDEKLKKRKERFGIVTS (also: biotinylated, site not given here) [SARNP UCM-4 peptide, biotinylated]",–,–,Kd [3]: 10 to 20 µM
B4,–,binds,–
B5,–,binds,–
